We go through 7 molecules from US20230293638A1 (Eli Lilly, published 2023).

Numbered stars: 1 amine (or outer) side, 2 acyl side, 3 side chain; on linkers, the order of the positions; unused ones are H or OH. Square brackets hold non-standard residues; d marks the D form. Side chains are listed from the residue outwards. Ends that are not written are not given here. * marks the point of attachment. C20 diacid = O=C(O)CCCCCCCCCCCCCCCCCCC(=O)*; γGlu = O=C(O)[C@H](CCC(=O)[*:2])N[*:1]; AEEA = NCCOCCOCC(=O)O; Aib = CC(C)(N)C(=O)O

Sequences and labels used below:
B1: Peptide 46 (peptide)
peptide: Y[Aib]EGTFTSDYSILLDKIAQ[Aib]AFIEYLIEGGPSSGAPK([AEEA-AEEA-γGlu-C20 diacid])PS-NH2
modifications: N-terminus assumed
SMILES: CC[C@H](C)[C@H](NC(=O)[C@H](CCCCN)NC(=O)[C@H](CC(=O)O)NC(=O)[C@H](CC(C)C)NC(=O)[C@H](CC(C)C)NC(=O)[C@@H](NC(=O)[C@H](CO)NC(=O)[C@H](Cc1ccc(O)cc1)NC(=O)[C@H](CC(=O)O)NC(=O)[C@H](CO)NC(=O)[C@@H](NC(=O)[C@H](Cc1ccccc1)NC(=O)[C@@H](NC(=O)CNC(=O)[C@H](CCC(=O)O)NC(=O)C(C)(C)NC(=O)[C@@H](N)Cc1ccc(O)cc1)[C@@H](C)O)[C@@H](C)O)[C@@H](C)CC)C(=O)N[C@@H](C)C(=O)N[C@@H](CCC(N)=O)C(=O)NC(C)(C)C(=O)N[C@@H](C)C(=O)N[C@@H](Cc1ccccc1)C(=O)N[C@H](C(=O)N[C@@H](CCC(=O)O)C(=O)N[C@@H](Cc1ccc(O)cc1)C(=O)N[C@@H](CC(C)C)C(=O)N[C@H](C(=O)N[C@@H](CCC(=O)O)C(=O)NCC(=O)NCC(=O)N1CCC[C@H]1C(=O)N[C@@H](CO)C(=O)N[C@@H](CO)C(=O)NCC(=O)N[C@@H](C)C(=O)N1CCC[C@H]1C(=O)N[C@@H](CCCCNC(=O)COCCOCCNC(=O)COCCOCCNC(=O)CC[C@H](NC(=O)CCCCCCCCCCCCCCCCCCC(=O)O)C(=O)O)C(=O)N1CCC[C@H]1C(=O)N[C@@H](CO)C(N)=O)[C@@H](C)CC)[C@@H](C)CC
B2: Peptide 48 (peptide)
peptide: Y[Aib]EGTFTSDYSILLDKIAQ[Aib]AFIEYLIEGGPSSGAPPPK([AEEA-AEEA-γGlu-C20 diacid])-NH2
modifications: N-terminus assumed
SMILES: CC[C@H](C)[C@H](NC(=O)[C@H](CCCCN)NC(=O)[C@H](CC(=O)O)NC(=O)[C@H](CC(C)C)NC(=O)[C@H](CC(C)C)NC(=O)[C@@H](NC(=O)[C@H](CO)NC(=O)[C@H](Cc1ccc(O)cc1)NC(=O)[C@H](CC(=O)O)NC(=O)[C@H](CO)NC(=O)[C@@H](NC(=O)[C@H](Cc1ccccc1)NC(=O)[C@@H](NC(=O)CNC(=O)[C@H](CCC(=O)O)NC(=O)C(C)(C)NC(=O)[C@@H](N)Cc1ccc(O)cc1)[C@@H](C)O)[C@@H](C)O)[C@@H](C)CC)C(=O)N[C@@H](C)C(=O)N[C@@H](CCC(N)=O)C(=O)NC(C)(C)C(=O)N[C@@H](C)C(=O)N[C@@H](Cc1ccccc1)C(=O)N[C@H](C(=O)N[C@@H](CCC(=O)O)C(=O)N[C@@H](Cc1ccc(O)cc1)C(=O)N[C@@H](CC(C)C)C(=O)N[C@H](C(=O)N[C@@H](CCC(=O)O)C(=O)NCC(=O)NCC(=O)N1CCC[C@H]1C(=O)N[C@@H](CO)C(=O)N[C@@H](CO)C(=O)NCC(=O)N[C@@H](C)C(=O)N1CCC[C@H]1C(=O)N1CCC[C@H]1C(=O)N1CCC[C@H]1C(=O)N[C@@H](CCCCNC(=O)COCCOCCNC(=O)COCCOCCNC(=O)CC[C@H](NC(=O)CCCCCCCCCCCCCCCCCCC(=O)O)C(=O)O)C(N)=O)[C@@H](C)CC)[C@@H](C)CC
B3: Peptide 41 (peptide)
peptide: Y[Aib]EGTFTSDYSILLDKIAQ[Aib]AFIEYLIEGGPK([AEEA-AEEA-γGlu-C20 diacid])SGAPPPS-NH2
modifications: N-terminus assumed
SMILES: CC[C@H](C)[C@H](NC(=O)[C@H](CCCCN)NC(=O)[C@H](CC(=O)O)NC(=O)[C@H](CC(C)C)NC(=O)[C@H](CC(C)C)NC(=O)[C@@H](NC(=O)[C@H](CO)NC(=O)[C@H](Cc1ccc(O)cc1)NC(=O)[C@H](CC(=O)O)NC(=O)[C@H](CO)NC(=O)[C@@H](NC(=O)[C@H](Cc1ccccc1)NC(=O)[C@@H](NC(=O)CNC(=O)[C@H](CCC(=O)O)NC(=O)C(C)(C)NC(=O)[C@@H](N)Cc1ccc(O)cc1)[C@@H](C)O)[C@@H](C)O)[C@@H](C)CC)C(=O)N[C@@H](C)C(=O)N[C@@H](CCC(N)=O)C(=O)NC(C)(C)C(=O)N[C@@H](C)C(=O)N[C@@H](Cc1ccccc1)C(=O)N[C@H](C(=O)N[C@@H](CCC(=O)O)C(=O)N[C@@H](Cc1ccc(O)cc1)C(=O)N[C@@H](CC(C)C)C(=O)N[C@H](C(=O)N[C@@H](CCC(=O)O)C(=O)NCC(=O)NCC(=O)N1CCC[C@H]1C(=O)N[C@@H](CCCCNC(=O)COCCOCCNC(=O)COCCOCCNC(=O)CC[C@H](NC(=O)CCCCCCCCCCCCCCCCCCC(=O)O)C(=O)O)C(=O)N[C@@H](CO)C(=O)NCC(=O)N[C@@H](C)C(=O)N1CCC[C@H]1C(=O)N1CCC[C@H]1C(=O)N1CCC[C@H]1C(=O)N[C@@H](CO)C(N)=O)[C@@H](C)CC)[C@@H](C)CC
B4: Peptide 33 (peptide)
peptide: Y[Aib]EGTFTSDYSILLDKIAQ[Aib]AFK([AEEA-AEEA-γGlu-C20 diacid])EYLIEGGPSSGAPPPS-NH2
B5: Peptide 37 (peptide)
peptide: Y[Aib]EGTFTSDYSILLDKIAQ[Aib]AFIEYLIK([AEEA-AEEA-γGlu-C20 diacid])GGPSSGAPPPS-NH2
modifications: N-terminus assumed
SMILES: CC[C@H](C)[C@H](NC(=O)[C@H](CCCCN)NC(=O)[C@H](CC(=O)O)NC(=O)[C@H](CC(C)C)NC(=O)[C@H](CC(C)C)NC(=O)[C@@H](NC(=O)[C@H](CO)NC(=O)[C@H](Cc1ccc(O)cc1)NC(=O)[C@H](CC(=O)O)NC(=O)[C@H](CO)NC(=O)[C@@H](NC(=O)[C@H](Cc1ccccc1)NC(=O)[C@@H](NC(=O)CNC(=O)[C@H](CCC(=O)O)NC(=O)C(C)(C)NC(=O)[C@@H](N)Cc1ccc(O)cc1)[C@@H](C)O)[C@@H](C)O)[C@@H](C)CC)C(=O)N[C@@H](C)C(=O)N[C@@H](CCC(N)=O)C(=O)NC(C)(C)C(=O)N[C@@H](C)C(=O)N[C@@H](Cc1ccccc1)C(=O)N[C@H](C(=O)N[C@@H](CCC(=O)O)C(=O)N[C@@H](Cc1ccc(O)cc1)C(=O)N[C@@H](CC(C)C)C(=O)N[C@H](C(=O)N[C@@H](CCCCNC(=O)COCCOCCNC(=O)COCCOCCNC(=O)CC[C@H](NC(=O)CCCCCCCCCCCCCCCCCCC(=O)O)C(=O)O)C(=O)NCC(=O)NCC(=O)N1CCC[C@H]1C(=O)N[C@@H](CO)C(=O)N[C@@H](CO)C(=O)NCC(=O)N[C@@H](C)C(=O)N1CCC[C@H]1C(=O)N1CCC[C@H]1C(=O)N1CCC[C@H]1C(=O)N[C@@H](CO)C(N)=O)[C@@H](C)CC)[C@@H](C)CC
B6: Peptide 47 (peptide)
peptide: Y[Aib]EGTFTSDYSILLDKIAQ[Aib]AFIEYLIEGGPSSGAPPK([AEEA-AEEA-γGlu-C20 diacid])S-NH2
modifications: N-terminus assumed
SMILES: CC[C@H](C)[C@H](NC(=O)[C@H](CCCCN)NC(=O)[C@H](CC(=O)O)NC(=O)[C@H](CC(C)C)NC(=O)[C@H](CC(C)C)NC(=O)[C@@H](NC(=O)[C@H](CO)NC(=O)[C@H](Cc1ccc(O)cc1)NC(=O)[C@H](CC(=O)O)NC(=O)[C@H](CO)NC(=O)[C@@H](NC(=O)[C@H](Cc1ccccc1)NC(=O)[C@@H](NC(=O)CNC(=O)[C@H](CCC(=O)O)NC(=O)C(C)(C)NC(=O)[C@@H](N)Cc1ccc(O)cc1)[C@@H](C)O)[C@@H](C)O)[C@@H](C)CC)C(=O)N[C@@H](C)C(=O)N[C@@H](CCC(N)=O)C(=O)NC(C)(C)C(=O)N[C@@H](C)C(=O)N[C@@H](Cc1ccccc1)C(=O)N[C@H](C(=O)N[C@@H](CCC(=O)O)C(=O)N[C@@H](Cc1ccc(O)cc1)C(=O)N[C@@H](CC(C)C)C(=O)N[C@H](C(=O)N[C@@H](CCC(=O)O)C(=O)NCC(=O)NCC(=O)N1CCC[C@H]1C(=O)N[C@@H](CO)C(=O)N[C@@H](CO)C(=O)NCC(=O)N[C@@H](C)C(=O)N1CCC[C@H]1C(=O)N1CCC[C@H]1C(=O)N[C@@H](CCCCNC(=O)COCCOCCNC(=O)COCCOCCNC(=O)CC[C@H](NC(=O)CCCCCCCCCCCCCCCCCCC(=O)O)C(=O)O)C(=O)N[C@@H](CO)C(N)=O)[C@@H](C)CC)[C@@H](C)CC
B7: Peptide 34 (peptide)
peptide: Y[Aib]EGTFTSDYSILLDKIAQ[Aib]AFIK([AEEA-AEEA-γGlu-C20 diacid])YLIEGGPSSGAPPPS-NH2
modifications: N-terminus assumed
SMILES: CC[C@H](C)[C@H](NC(=O)[C@H](CCCCN)NC(=O)[C@H](CC(=O)O)NC(=O)[C@H](CC(C)C)NC(=O)[C@H](CC(C)C)NC(=O)[C@@H](NC(=O)[C@H](CO)NC(=O)[C@H](Cc1ccc(O)cc1)NC(=O)[C@H](CC(=O)O)NC(=O)[C@H](CO)NC(=O)[C@@H](NC(=O)[C@H](Cc1ccccc1)NC(=O)[C@@H](NC(=O)CNC(=O)[C@H](CCC(=O)O)NC(=O)C(C)(C)NC(=O)[C@@H](N)Cc1ccc(O)cc1)[C@@H](C)O)[C@@H](C)O)[C@@H](C)CC)C(=O)N[C@@H](C)C(=O)N[C@@H](CCC(N)=O)C(=O)NC(C)(C)C(=O)N[C@@H](C)C(=O)N[C@@H](Cc1ccccc1)C(=O)N[C@H](C(=O)N[C@@H](CCCCNC(=O)COCCOCCNC(=O)COCCOCCNC(=O)CC[C@H](NC(=O)CCCCCCCCCCCCCCCCCCC(=O)O)C(=O)O)C(=O)N[C@@H](Cc1ccc(O)cc1)C(=O)N[C@@H](CC(C)C)C(=O)N[C@H](C(=O)N[C@@H](CCC(=O)O)C(=O)NCC(=O)NCC(=O)N1CCC[C@H]1C(=O)N[C@@H](CO)C(=O)N[C@@H](CO)C(=O)NCC(=O)N[C@@H](C)C(=O)N1CCC[C@H]1C(=O)N1CCC[C@H]1C(=O)N1CCC[C@H]1C(=O)N[C@@H](CO)C(N)=O)[C@@H](C)CC)[C@@H](C)CC

For this test, the target named is human GLP-1 receptor (human, UniProt P43220 24-463). In words: cell-based or functional assay.
B1: the “hGLPIR cAMP EC50 ratio” value stood at 0.0969.
Next, B2: 0.0966.
Next, B3: 0.0637.
Next, B4: 0.000256; B5: 0.0533; B6: 0.089.
On to B7, for which the “hGLPIR cAMP EC50 ratio” value was found to be 0.0392.
